Values quoted from earlier work as cited in PMC8645602.
Read-outs that look alike come from different tables or passages of the source.

Legend:
Tyr9 [1] = biological target: Tyr9 (UniProt position 9, KPKLHYFNARG)
Tyr9 [2] = biological target: Tyr9 (UniProt position 9, KPKLHYFNGRG); details: not stated (the article does not say whether the enzyme was free or glutathione-bound)

**Q.** For “Glutathione transferase A1-1 (HsaGST A1-1) (Homo sapiens)”, which pKa (Tyr9 [1]; free enzyme (no glutathione)) is on record?
**A.** The pKa was 8.1.

**Q.** And the pKa (Tyr9 [1]; glutathione bound)?
**A.** Its pKa is 9.2.

**Q.** For “Glutathione transferase A3-3 (HsaGST A3-3) (Homo sapiens)”, which pKa (Tyr9 [2]) is on record?
**A.** The pKa was 7.9.
